Assay results: patent US6083709

Experiments:
Test in all cases: p53 two-site sandwich ELISA, sample tested at 100 ng/ml
[1] = target: hrIL-4 (human (by the printed prefix hr; not spelled out)) (UniProt P05112)
[2] = target: hG-CSF (human (by the printed prefix h; not spelled out)) (UniProt P09919)
[3] = target: bInsulin (bovine (by the printed prefix b; not spelled out)) (UniProt P01317)
[4] = target: hrIGF-1 (human (by the printed prefix hr; not spelled out)) (UniProt P05019)
[5] = target: hrIL-1α (human (by the printed prefix hr; not spelled out)) (UniProt P01583)
[6] = target: hrTNFα (human (by the printed prefix hr; not spelled out)) (UniProt P01375)
[7] = target: hrIL-6 (human (by the printed prefix hr; not spelled out)) (UniProt P05231)
[8] = target: hrIL-2 (human (by the printed prefix hr; not spelled out)) (UniProt P60568)
[9] = target: hrIL-1β (human (by the printed prefix hr; not spelled out)) (UniProt P01584)
[10] = target: hTransferin (human (by the printed prefix h; not spelled out)) (UniProt P02787)
[11] = target: hPDGF (human (by the printed prefix h; not spelled out))
[12] = target: hrIL-3 (human (by the printed prefix hr; not spelled out)) (UniProt P08700)
[13] = target: hrGM-CSF (human (by the printed prefix hr; not spelled out)) (UniProt P04141)

Measured: Assay Results (apparent mutant p53 read in the p53 ELISA)

monoclonal antibody from clone PAb240
< 50 pg/mL: all assays above
